According to PMC6555819, “Comprehensive study of nuclear receptor DNA binding provides a revised framework for understanding receptor specificity”:

Tests used:
[1] = target: RXRa (Homo sapiens, UniProt P19793); assay: no ligand; PBM; 180 nM; PBS pH 7.4, 2% milk, 0.02% Triton X-100, 1 mM DTT, BSA, 0.4 mg/ml salmon testes DNA; conditions: tags: His cleaved; chain copies: 2; label: surface-attached array probe
[2] = target: PPARg:RXRa (Homo sapiens, UniProt P37231;P19793 full;full); assay: no ligand; PBM; 180 nM : 90 nM RXRa; PBS pH 7.4, 2% milk, 0.02% Triton X-100, 1 mM DTT, BSA, 0.4 mg/ml salmon testes DNA; conditions: tags: His kept;His cleaved; copies: 1;1; label: surface-attached array probe
[3] = target: RARb:RXRa (Homo sapiens, UniProt P10826;P19793 full;full); assay: no ligand; PBM; 270 nM : 90 nM RXRa; PBS pH 7.4, 2% milk, 0.02% Triton X-100, 1 mM DTT, BSA, 0.4 mg/ml salmon testes DNA; conditions: tags: His kept;His cleaved; copies: 1;1; label: surface-attached array probe
Outline: (§1)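 The probes on custom Agilent 4×180K protein-binding microarrays were double-stranded, with 34-nt variable regions bearing direct-repeat seeds, single-nucleotide variants, half-site ablations and random human genomic background sequences. Incubation lasted 1 h with ligand-free nuclear receptor dimers in PBS pH 7.4, 2% milk, 0.02% Triton X-100, 1 mM DTT, 0.2 mg/mL BSA and 0.4 mg/ml salmon testes DNA. Antibodies against each partner (one per run) detected bound dimers, and fluorescence scans were regression-normalized. Binding z-scores take the random background probes as reference.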

[4] = target: VDR:RXRa (Homo sapiens, UniProt P11473;P19793 full;full); assay: as above; conditions: tags: His kept;His cleaved; copies: 1;1; label: surface-attached array probe
Outline: as §1

[5] = target: LXRa:RXRa (Homo sapiens, UniProt Q13133;P19793 full;full); assay: as above; conditions: tags: His kept;His cleaved; copies: 1;1; label: surface-attached array probe
Outline: as §1

[6] = target: PPARa:RXRa (Homo sapiens, UniProt Q07869;P19793 full;full); assay: as above; conditions: tags: GST kept;His cleaved; copies: 1;1; label: surface-attached array probe
Outline: as §1

[7] = target: LXRb:RXRa (Homo sapiens, UniProt P55055;P19793 full;full); assay: as above; conditions: tags: His kept;His cleaved; copies: 1;1; label: surface-attached array probe
Outline: as §1

[8] = target: FXR:RXRa (Homo sapiens, UniProt Q96RI1;P19793 full;full); assay: as above; conditions: tags: His kept;His cleaved; copies: 1;1; label: surface-attached array probe
Outline: as §1

[9] = target: PXR:RXRa (Homo sapiens, UniProt O75469;P19793 full;full); assay: as above; conditions: tags: His kept;His cleaved; copies: 1;1; label: surface-attached array probe
Outline: as §1

[10] = target: RARa:RXRa (Homo sapiens, UniProt P10276;P19793 full;full); assay: as above; conditions: tags: His kept;His cleaved; copies: 1;1; label: surface-attached array probe
Outline: as §1

[11] = target: RARg:RXRa (Homo sapiens, UniProt P13631;P19793 full;full); assay: as above; conditions: tags: His kept;His cleaved; copies: 1;1; label: surface-attached array probe
Outline: as §1

[12] = target: THRa:RXRa (Homo sapiens, UniProt P10827;P19793 full;full); assay: no ligand; PBM; 90 nM : 90 nM RXRa; PBS pH 7.4, 2% milk, 0.02% Triton X-100, 1 mM DTT, BSA, 0.4 mg/ml salmon testes DNA; conditions: tags: His kept;His cleaved; copies: 1;1; label: surface-attached array probe

LXRb:RXRa, sequence (P55055 whole entry, chain 1 of 2): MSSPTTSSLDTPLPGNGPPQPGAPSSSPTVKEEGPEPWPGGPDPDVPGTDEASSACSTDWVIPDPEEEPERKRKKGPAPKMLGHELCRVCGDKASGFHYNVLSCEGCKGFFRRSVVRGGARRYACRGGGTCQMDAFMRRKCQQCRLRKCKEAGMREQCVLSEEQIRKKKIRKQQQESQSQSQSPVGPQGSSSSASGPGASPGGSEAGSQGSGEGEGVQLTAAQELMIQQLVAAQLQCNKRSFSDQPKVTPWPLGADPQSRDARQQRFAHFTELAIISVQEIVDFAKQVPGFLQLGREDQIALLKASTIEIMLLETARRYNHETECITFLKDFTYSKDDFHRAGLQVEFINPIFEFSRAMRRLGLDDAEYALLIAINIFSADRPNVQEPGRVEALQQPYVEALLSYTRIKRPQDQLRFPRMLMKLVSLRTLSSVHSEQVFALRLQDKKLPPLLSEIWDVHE
LXRb:RXRa, sequence (P19793 whole entry, chain 2 of 2): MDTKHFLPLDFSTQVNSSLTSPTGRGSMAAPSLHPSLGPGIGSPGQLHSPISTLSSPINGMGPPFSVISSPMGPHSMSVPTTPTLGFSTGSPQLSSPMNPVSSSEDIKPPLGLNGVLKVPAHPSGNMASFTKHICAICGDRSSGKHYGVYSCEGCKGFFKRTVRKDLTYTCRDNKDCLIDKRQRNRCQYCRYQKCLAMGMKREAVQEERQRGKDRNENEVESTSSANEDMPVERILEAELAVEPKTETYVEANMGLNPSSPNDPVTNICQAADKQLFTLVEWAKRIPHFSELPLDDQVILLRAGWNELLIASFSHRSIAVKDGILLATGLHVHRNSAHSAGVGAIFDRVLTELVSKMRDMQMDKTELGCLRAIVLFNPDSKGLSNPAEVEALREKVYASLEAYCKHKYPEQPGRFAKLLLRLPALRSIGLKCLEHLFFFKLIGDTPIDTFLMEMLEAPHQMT
RARg:RXRa, sequence (P13631 whole entry, chain 1 of 2): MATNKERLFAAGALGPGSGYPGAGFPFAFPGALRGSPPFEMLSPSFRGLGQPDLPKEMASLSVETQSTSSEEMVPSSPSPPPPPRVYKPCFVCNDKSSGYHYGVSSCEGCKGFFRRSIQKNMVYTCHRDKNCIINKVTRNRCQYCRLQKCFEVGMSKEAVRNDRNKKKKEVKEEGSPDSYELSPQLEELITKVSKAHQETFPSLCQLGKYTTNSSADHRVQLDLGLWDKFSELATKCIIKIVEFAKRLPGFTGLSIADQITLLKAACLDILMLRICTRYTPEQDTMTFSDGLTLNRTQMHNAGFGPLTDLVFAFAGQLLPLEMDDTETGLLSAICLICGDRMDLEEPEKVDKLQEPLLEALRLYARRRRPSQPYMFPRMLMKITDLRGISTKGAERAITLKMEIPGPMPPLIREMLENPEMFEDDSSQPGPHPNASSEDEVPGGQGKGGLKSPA
RARg:RXRa, sequence (P19793 whole entry, chain 2 of 2): as the sequence (P19793 whole entry, chain 2 of 2) above
RARa:RXRa, sequence (P10276 whole entry, chain 1 of 2): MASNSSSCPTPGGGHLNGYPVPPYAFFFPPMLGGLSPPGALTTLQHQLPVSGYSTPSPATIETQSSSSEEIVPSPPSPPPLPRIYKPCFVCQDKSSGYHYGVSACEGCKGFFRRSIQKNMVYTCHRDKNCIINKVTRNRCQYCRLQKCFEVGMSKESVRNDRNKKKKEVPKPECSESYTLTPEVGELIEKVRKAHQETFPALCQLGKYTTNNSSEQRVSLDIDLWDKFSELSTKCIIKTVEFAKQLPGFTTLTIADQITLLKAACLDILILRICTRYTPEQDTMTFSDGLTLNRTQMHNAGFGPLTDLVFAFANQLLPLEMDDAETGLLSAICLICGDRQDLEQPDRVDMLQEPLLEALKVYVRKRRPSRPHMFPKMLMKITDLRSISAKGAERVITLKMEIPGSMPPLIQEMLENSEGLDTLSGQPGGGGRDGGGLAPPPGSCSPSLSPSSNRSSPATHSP
RARa:RXRa, sequence (P19793 whole entry, chain 2 of 2): as the sequence (P19793 whole entry, chain 2 of 2) above
VDR:RXRa, sequence (P11473 whole entry, chain 1 of 2): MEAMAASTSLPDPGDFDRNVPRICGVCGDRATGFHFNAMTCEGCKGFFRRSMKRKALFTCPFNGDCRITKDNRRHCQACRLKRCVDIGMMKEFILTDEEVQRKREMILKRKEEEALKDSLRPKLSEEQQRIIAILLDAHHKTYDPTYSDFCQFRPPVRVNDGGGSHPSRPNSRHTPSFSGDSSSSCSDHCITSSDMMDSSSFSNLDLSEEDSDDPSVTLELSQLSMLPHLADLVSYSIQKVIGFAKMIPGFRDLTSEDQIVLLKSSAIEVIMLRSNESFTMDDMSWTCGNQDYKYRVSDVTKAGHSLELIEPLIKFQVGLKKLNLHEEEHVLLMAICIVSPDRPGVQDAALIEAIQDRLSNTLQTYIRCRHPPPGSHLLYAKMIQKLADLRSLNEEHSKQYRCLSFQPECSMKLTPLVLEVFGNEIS
VDR:RXRa, sequence (P19793 whole entry, chain 2 of 2): as the sequence (P19793 whole entry, chain 2 of 2) above
PPARg:RXRa, sequence (P37231 29-505, chain 1 of 2): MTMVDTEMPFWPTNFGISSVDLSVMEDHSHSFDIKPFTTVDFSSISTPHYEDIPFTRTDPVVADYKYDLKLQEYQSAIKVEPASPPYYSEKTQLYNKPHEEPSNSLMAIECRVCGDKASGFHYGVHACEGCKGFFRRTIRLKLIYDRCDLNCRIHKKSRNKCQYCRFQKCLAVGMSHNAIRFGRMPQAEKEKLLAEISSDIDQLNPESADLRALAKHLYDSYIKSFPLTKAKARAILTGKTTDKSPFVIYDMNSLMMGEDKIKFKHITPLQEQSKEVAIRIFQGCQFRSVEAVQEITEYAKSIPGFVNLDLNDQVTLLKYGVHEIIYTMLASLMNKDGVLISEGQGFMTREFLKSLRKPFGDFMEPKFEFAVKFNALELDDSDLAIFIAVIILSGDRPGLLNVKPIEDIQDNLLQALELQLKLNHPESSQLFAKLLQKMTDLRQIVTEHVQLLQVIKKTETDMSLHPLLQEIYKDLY
PPARg:RXRa, sequence (P19793 whole entry, chain 2 of 2): as the sequence (P19793 whole entry, chain 2 of 2) above

| Binder | binding signal [1] | binding signal [2] | binding signal [4] | binding signal [5] | binding signal [6] | binding signal [7] | binding signal [9] | binding signal [10] | binding signal [11] | binding signal [12] | further results |
| --- | --- | --- | --- | --- | --- | --- | --- | --- | --- | --- | --- |
| NRC3_wobSeed53_DR2_C8G_o1 (dsDNA) DNA 1: GCCCTTAGGGGTCACGAGGTTATAGCACGACGAGCGGCGATTGACAGCGTAGAATGAAGG DNA 2: CCTTCATTCTACGCTGTCAATCGCCGCTCGTCGTGCTATAACCTCGTGACCCCTAAGGGC | 10.1 PBM z-score against 500 random probes | 10.3 PBM z-score against 500 random probes | 7.15 PBM z-score against 500 random probes | 7.02 PBM z-score against 500 random probes | 7.21 PBM z-score against 500 random probes | 6.15 PBM z-score against 500 random probes | 6.73 PBM z-score against 500 random probes | 8.32 PBM z-score against 500 random probes | 8.51 PBM z-score against 500 random probes |  | binding signal [3]: 5.93 PBM z-score against 500 random probes; binding signal [8]: 8.88 PBM z-score against 500 random probes |
| NRC3_wobSeed97_DR4_A17T_o1 (dsDNA) DNA 1: GCCAAACTAGGTCACGTAAGGTCAAAGTCGAATGACGCGATTGACAGCGTAGAATGAAGG DNA 2: CCTTCATTCTACGCTGTCAATCGCGTCATTCGACTTTGACCTTACGTGACCTAGTTTGGC |  |  |  |  |  |  |  |  |  | 5.77 PBM z-score against 500 random probes |  |
| NRC3_wobSeed97_DR4_A17C_o1 (dsDNA) DNA 1: GCCAAACTAGGTCACGCAAGGTCAAAGTCGAATGACGCGATTGACAGCGTAGAATGAAGG DNA 2: CCTTCATTCTACGCTGTCAATCGCGTCATTCGACTTTGACCTTGCGTGACCTAGTTTGGC |  |  |  |  |  |  |  |  |  | 5.55 PBM z-score against 500 random probes |  |
| NRC3_wobSeed113_DR4_T8C_o1 (dsDNA) DNA 1: GCATATGCAGGTTAGCTGGGGTCATTCAGACTAGGCGCGATTGACAGCGTAGAATGAAGG DNA 2: CCTTCATTCTACGCTGTCAATCGCGCCTAGTCTGAATGACCCCAGCTAACCTGCATATGC |  |  |  |  |  |  |  |  |  | 5.52 PBM z-score against 500 random probes |  |
| NRC3_wobSeed113_DR4_G29T_o1 (dsDNA) DNA 1: GCATATGTAGGTTAGCTGGGGTCATTCATACTAGGCGCGATTGACAGCGTAGAATGAAGG DNA 2: CCTTCATTCTACGCTGTCAATCGCGCCTAGTATGAATGACCCCAGCTAACCTACATATGC |  |  |  |  |  |  |  |  |  | 5.52 PBM z-score against 500 random probes |  |
| NRC3_wobSeed42_DR1_A8G_o1 (dsDNA) DNA 1: GCTATACGGGGTCAAAGGCCAGAGTACGAATGTCGAGCGATTGACAGCGTAGAATGAAGG DNA 2: CCTTCATTCTACGCTGTCAATCGCTCGACATTCGTACTCTGGCCTTTGACCCCGTATAGC | 9.41 PBM z-score against 500 random probes | 10.7 PBM z-score against 500 random probes | 6.76 PBM z-score against 500 random probes | 7.28 PBM z-score against 500 random probes | 7.07 PBM z-score against 500 random probes | 7.1 PBM z-score against 500 random probes | 6.54 PBM z-score against 500 random probes | 7.79 PBM z-score against 500 random probes | 7.59 PBM z-score against 500 random probes |  | binding signal [8]: 8.52 PBM z-score against 500 random probes |
| NRC3_wobSeed28_DR1_C12T_o1 (dsDNA) DNA 1: GCCCTACTGGGTCAAAGGTCATTGATTCCAATGCTCGCGATTGACAGCGTAGAATGAAGG DNA 2: CCTTCATTCTACGCTGTCAATCGCGAGCATTGGAATCAATGACCTTTGACCCAGTAGGGC | 9.56 PBM z-score against 500 random probes | 13.5 PBM z-score against 500 random probes | 6.8 PBM z-score against 500 random probes | 6.6 PBM z-score against 500 random probes | 7.41 PBM z-score against 500 random probes | 6.34 PBM z-score against 500 random probes | 7.26 PBM z-score against 500 random probes | 8.75 PBM z-score against 500 random probes | 8.01 PBM z-score against 500 random probes |  | binding signal [3]: 5.54 PBM z-score against 500 random probes |
| NRC3_wobSeed118_DR4_G24A_o1 (dsDNA) DNA 1: GCTTACCAAGGTGAGCTGAGGTCATTGATCCAACTCGCGATTGACAGCGTAGAATGAAGG DNA 2: CCTTCATTCTACGCTGTCAATCGCGAGTTGGATCAATGACCTCAGCTCACCTTGGTAAGC |  |  |  |  |  |  |  |  |  | 5.35 PBM z-score against 500 random probes |  |
| NRC3_wobSeed106_DR4_G15T_o1 (dsDNA) DNA 1: GCCTCGAAAGGTCGTTTGAGGTGAGTATACGGATAAGCGATTGACAGCGTAGAATGAAGG DNA 2: CCTTCATTCTACGCTGTCAATCGCTTATCCGTATACTCACCTCAAACGACCTTTCGAGGC |  |  |  |  |  |  |  |  |  | 5.63 PBM z-score against 500 random probes |  |
| NRC3_wobSeed106_DR4_G15A_o1 (dsDNA) DNA 1: GCCTCGAAAGGTCGATTGAGGTGAGTATACGGATAAGCGATTGACAGCGTAGAATGAAGG DNA 2: CCTTCATTCTACGCTGTCAATCGCTTATCCGTATACTCACCTCAATCGACCTTTCGAGGC |  |  |  |  |  |  |  |  |  | 5.36 PBM z-score against 500 random probes |  |
